3 molecules from patent US20130315914A1 (NOVIMMUNE, published 2013) can be followed below.

Experiment [1] deals with T1, soluble histidine-tagged form of human TLR4/MD2 complex (human, UniProt Q9Y6Y9 19-160). Kind of experiment: competitive ELISA; coated 15C1 as competitor, soluble His-tagged human TLR4/MD2, Penta-His-HRP. As to the method:
(§1) The VH and VL cDNA sequences in their appropriate expression vectors were transfected into mammalian cells using the Fugene 6 Transfection Reagent (Roche, Basel, Switzerland). Briefly, Peak cells were cultured in 6-well plates at a concentration of 6×10⁵ cells per well in 2 mL culture media containing fetal bovine serum. The expression vectors, encoding the candidate VH and VL sequences, were co-transfected into the cells using the Fugene 6 Transfection Reagent according to manufacturer's instructions. One day following transfection, the culture media was aspirated, and 3 mL of fresh serum-free media was added to cells and cultured for three days at 37° C. Following three days culture period, the supernatant was harvested for IgG purified on protein G-Sepharose 4B fast flow columns (Sigma, St. Louis, Mo.) according to manufacturer's instructions. Briefly, supernatants from transfected cells were incubated overnight at 4° C. with ImmunoPure (G) IgG binding buffer (Pierce, Rockford Ill.). Samples were then passed over Protein G-Sepharose 4B fast flow columns and the IgG consequently purified using elution buffer. The eluted IgG fraction was then dialyzed against PBS and the IgG content quantified by absorption at 280 nm. Purity and IgG integrity were verified by SDS-PAGE. Relative binding potency of 1E11 variants was assessed by competitive ELISA. Briefly, 15C1 antibody was coated overnight in a 96-well Maxisorp plate and then blocked with PBS-BSA. The 15C1 reference antibody and affinity matured variants of 1E11 were added to the plate at a fixed concentration and a 3.5-fold serial dilution of the samples was performed. Then, soluble histidine-tagged form of human TLR4/MD2 complex was added to the plate at a fixed concentration. After incubation one hour at 37° C., the plate was washed and a solution of Penta-His-HRP antibody was distributed, this step was followed by an additional incubation time of one hour at 37° C. Finally, the plate was washed and TMB was added for colorimetric revelation, the enzymatic reaction is stopped by H₂SO₄ solution. The results were determined according to the absorbance at 450 nm. The relative binding potency was calculated by dividing the reference EC₅₀ with affinity matured variants EC₅₀ (Table 8).

Experiment [2] concerns the target human TLR4 in human whole blood (human). Kind of experiment: cell-based or functional assay.
Experiment [3] addresses T1, soluble histidine-tagged form of human …. Kind of experiment: competitive ELISA; 15C1 reference EC50 divided by variant EC50. As to the method:
as §1

For experiment [4], the target named is T2, cynomolgus monkey TLR4 expressed on stably transfected CHO-K1 cells (cynomolgus monkey, UniProt Q9TSP2 24-826 (Papio anubis entry)).
T2 construct: Transfected alone; also called CHO cells expressing the cynomolgus monkey TLR4
T2 chain: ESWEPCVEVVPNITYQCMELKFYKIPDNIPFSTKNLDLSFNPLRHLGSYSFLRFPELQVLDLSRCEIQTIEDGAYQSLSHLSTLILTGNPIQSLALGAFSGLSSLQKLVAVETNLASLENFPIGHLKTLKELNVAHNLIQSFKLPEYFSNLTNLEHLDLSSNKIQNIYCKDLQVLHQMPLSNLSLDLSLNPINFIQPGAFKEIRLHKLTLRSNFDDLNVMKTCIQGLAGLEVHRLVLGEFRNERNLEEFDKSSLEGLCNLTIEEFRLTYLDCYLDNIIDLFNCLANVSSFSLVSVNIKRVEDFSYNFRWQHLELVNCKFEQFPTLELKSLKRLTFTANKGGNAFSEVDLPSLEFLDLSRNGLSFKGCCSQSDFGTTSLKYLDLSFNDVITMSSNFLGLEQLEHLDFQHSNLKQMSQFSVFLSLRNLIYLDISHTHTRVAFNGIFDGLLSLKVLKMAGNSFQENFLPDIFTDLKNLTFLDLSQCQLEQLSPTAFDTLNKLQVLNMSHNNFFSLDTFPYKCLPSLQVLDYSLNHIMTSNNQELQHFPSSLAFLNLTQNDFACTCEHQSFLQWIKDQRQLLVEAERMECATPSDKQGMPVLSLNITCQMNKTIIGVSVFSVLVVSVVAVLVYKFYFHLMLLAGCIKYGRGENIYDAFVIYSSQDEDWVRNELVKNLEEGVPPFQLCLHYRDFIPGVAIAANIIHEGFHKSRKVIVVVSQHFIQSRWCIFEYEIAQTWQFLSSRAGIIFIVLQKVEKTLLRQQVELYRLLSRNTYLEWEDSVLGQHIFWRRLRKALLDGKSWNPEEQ
Briefly: summary grade (species binding potential); assay not given.

Experiment [5] addresses T1, soluble histidine-tagged form of human …. Kind of experiment: competitive ELISA, as retold in Example 9 (Table 8 prints 39 for this clone). As to the method: Briefly, supernatants from transfected cells were incubated overnight at 4° C. with ImmunoPure (G) IgG binding buffer (Pierce, Rockford Ill.). Samples were then passed over Protein G-Sepharose 4B fast flow columns and the IgG consequently purified using elution buffer. The eluted IgG fraction was then dialyzed against PBS and the IgG content quantified by absorption at 280 nm. Purity and IgG integrity were verified by SDS-PAGE. Relative binding potency of 1E11 variants was assessed by competitive ELISA. Briefly, 15C1 antibody was coated overnight in a 96-well Maxisorp plate and then blocked with PBS-BSA. The 15C1 reference antibody and affinity matured variants of 1E11 were added to the plate at a fixed concentration and a 3.5-fold serial dilution of the samples was performed. Then, soluble histidine-tagged form of human TLR4/MD2 complex was added to the plate at a fixed concentration. After incubation one hour at 37° C., the plate was washed and a solution of Penta-His-HRP antibody was distributed, this step was followed by an additional incubation time of one hour at 37° C. Finally, the plate was washed and TMB was added for colorimetric revelation, the enzymatic reaction is stopped by H₂SO₄ solution. The results were determined according to the absorbance at 450 nm. The relative binding potency was calculated by dividing the reference EC₅₀ with affinity matured variants EC₅₀ (Table 8). […]

In experiment [6] the target is T2, cynomolgus monkey TLR4 expressed on …. Kind of experiment: flow cytometry; purified IgG on CHO cells expressing cynomolgus TLR4. As to the method:
10⁵ CHO cells or CHO cells expressing the cynomolgus monkey TLR4 were incubated in phosphate-buffered saline, 2% bovine serum albumin with different concentrations of purified antibodies selected by FMAT (1A1, 1A6, 1B12, 1C7, 1C10, 1C12, 1D10, 1E11, 1G12) with 15C1 as control. Cells were washed in phosphate-buffered saline, 2% bovine serum albumin and incubated in Alexa Fluor® 647 goat anti human IgG (H+L) (1:200; Invitrogen). Cells were analyzed using a FACS calibur cytometer (BD Biosciences).

In experiment [7] the target is T1, soluble histidine-tagged form of human …. Briefly: competitive ELISA; lower end of the range, tied to 1E11.C4 by Table 8 (2.5 there). On the procedure: The VH and VL cDNA sequences in their appropriate expression vectors were transfected into mammalian cells using the Fugene 6 Transfection Reagent (Roche, Basel, Switzerland). Briefly, Peak cells were cultured in 6-well plates at a concentration of 6×10⁵ cells per well in 2 mL culture media containing fetal bovine serum. The expression vectors, encoding the candidate VH and VL sequences, were co-transfected into the cells using the Fugene 6 Transfection Reagent according to manufacturer's instructions. One day following transfection, the culture media was aspirated, and 3 mL of fresh serum-free media was added to cells and cultured for three days at 37° C. Following three days culture period, the supernatant was harvested for IgG purified on protein G-Sepharose 4B fast flow columns (Sigma, St. Louis, Mo.) according to manufacturer's instructions. Briefly, supernatants from transfected cells were incubated overnight at 4° C. with ImmunoPure (G) IgG binding buffer (Pierce, Rockford Ill.). […] The eluted IgG fraction was then dialyzed against PBS and the IgG content quantified by absorption at 280 nm. […] Relative binding potency of 1E11 variants was assessed by competitive ELISA. […] The results were determined according to the absorbance at 450 nm. The relative binding potency was calculated by dividing the reference EC₅₀ with affinity matured variants EC₅₀ (Table 8).

T1 sequence (Q9Y6Y9 19-160, one chain of several): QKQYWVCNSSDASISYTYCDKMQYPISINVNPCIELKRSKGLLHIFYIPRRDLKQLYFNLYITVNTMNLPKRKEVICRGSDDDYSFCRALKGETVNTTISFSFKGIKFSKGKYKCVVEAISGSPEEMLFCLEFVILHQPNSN

B1: 1E11.C2E3 antibody (IgG1) (antibody, V domains shown)
VH: QVQLQESGPGLVKPSDTLSLTCAVSGYPIRFGYSWHWIRQPPGKGLEWMGYIHYSGYTDFNPSLKTRITISRDTSKNQFSLKLSSVTAVDTAVYYCARKDSGNYFPYWGQGTLVTVSS
VL: EIVLTQSPDFQSVTPKEKVTITCRASQSISDHLHWYQQKPDQSPKLLIKYASHAISGVPSRFSGSGSGTDFTLTINSLEAEDAATYYCQQGYDFPLTFGGGTKVEIK
For B1, the EC50 in experiment [1] came out at 0.016 µg/mL. Further, in experiment [2], the “IC50, inhibition of IL-6 production in human whole blood assay” value stood at 0.05 µg/mL and the “fold better than 15C1 at blocking human TLR4 (human whole blood assay)” value turned out to be 5 fold. Further, in experiment [3], the “Relative binding potency increase” value amounted to 39 fold. For the same molecule, the binding result in experiment [4] is listed as “binds”. For the same molecule, the “increase in binding potency (fold, compared to 15C1)” value in experiment [5] turned out to be 40 fold.

B2: humanized anti-TLR4 antibody 15C1 (antibody, V domains shown)
VH: QVQLQESGPGLVKPSDTLSLTCAVSGYSITGGYSWHWIRQPPGKGLEWMGYIHYSGYTDFNPSLKTRITISRDTSKNQFSLKLSSVTAVDTAVYYCARKDPSDAFPYWGQGTLVTVSS
VL: EIVLTQSPDFQSVTPKEKVTITCRASQSISDHLHWYQQKPDQSPKLLIKYASHAISGVPSRFSGSGSGTDFTLTINSLEAEDAATYYCQQGHSFPLTFGGGTKVEIK
notes: also called 15C1 Mab; parental antibody 15C1
Turning to B2, in experiment [6], the binding result is listed as “no binding”. The EC50 in experiment [1] was determined as 0.63 µg/mL. Further, in experiment [2], the “IC50, inhibition of IL-6 production in human whole blood assay” value was ~0.22 µg/mL.

B3: 1E11.C4 antibody (IgG1) (antibody, V domains shown)
VH: QVQLQESGPGLVKPSDTLSLTCAVSGFPIGQGYSWHWIRQPPGKGLEWMGYIHYSGYTDFNPSLKTRITISRDTSKNQFSLKLSSVTAVDTAVYYCARKDSGNYFPYWGQGTLVTVSS
VL: EIVLTQSPDFQSVTPKEKVTITCRASQSISDHLHWYQQKPDQSPKLLIKYASHAISGVPSRFSGSGSGTDFTLTINSLEAEDAATYYCQQGHSFPLTFGGGTKVEIK
Turning to B3, in experiment [7], the “relative binding potency (fold-increase compared to 15C1)” value worked out at 3 fold. Further, the EC50 in experiment [1] was 0.251 µg/mL. For the same molecule, in experiment [3], the “Relative binding potency increase” value was 2.5 fold. For the same molecule, the binding result in experiment [4] is “binds”.
